T1: human GPVI protein, soluble extracellular domain (D1 and D2) (human, UniProt Q9HCN6 21-267)
T1 construct: extracellular domain; also called hGPVI; human glycoprotein VI
T1 sequence (looked up): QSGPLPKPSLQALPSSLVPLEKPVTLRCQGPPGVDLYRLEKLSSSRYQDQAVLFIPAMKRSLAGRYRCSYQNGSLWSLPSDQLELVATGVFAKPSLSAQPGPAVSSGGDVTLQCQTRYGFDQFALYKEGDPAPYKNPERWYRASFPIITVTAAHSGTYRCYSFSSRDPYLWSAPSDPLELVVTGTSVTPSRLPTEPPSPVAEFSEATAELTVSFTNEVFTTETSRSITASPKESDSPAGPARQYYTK

T2: human GPVI on platelets (human, UniProt Q9HCN6 21-339)
T2 sequence (looked up): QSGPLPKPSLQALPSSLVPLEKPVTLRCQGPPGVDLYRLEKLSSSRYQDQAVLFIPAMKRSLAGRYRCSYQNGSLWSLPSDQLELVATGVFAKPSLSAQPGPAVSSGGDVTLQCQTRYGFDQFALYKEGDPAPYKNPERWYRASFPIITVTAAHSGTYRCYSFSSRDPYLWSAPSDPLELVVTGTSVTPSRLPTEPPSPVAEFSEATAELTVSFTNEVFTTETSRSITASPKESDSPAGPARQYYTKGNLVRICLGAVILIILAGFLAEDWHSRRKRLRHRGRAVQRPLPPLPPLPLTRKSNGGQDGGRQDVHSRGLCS


What was measured:
[1] = molecular target: T1, human GPVI protein, soluble …; experiment: SPR (Biacore 3000), human GPVI immobilised, Fab analyte
Procedure: Surface plasmon resonance technology on a Biacore 3000 (GE Healthcare) was used for detailed kinetic characterisation of purified antibody fragments. An assay with immobilised human GPVI was used. Typically, 300 RU of GPVI were immobilised on a research grade CM5 chip by amine reactive coupling, resulting in an Rmax of 200 RU for the bound antibody fragment. Binding kinetics were measured over a concentration range between 3.2 to 112 nM in HBS-EP (10 mM HEPES pH 7.4, 150 mM NaCl, 3 mM EDTA, 0.005% Surfactant P20) at a flow rate of 30 μl/min. Chip surfaces were regenerated with 10 mM glycine pH2.0. Kinetic parameters were analysed and calculated in the BIAevaluation program package (version 4.1) using a flow cell without immobilised GPVI as reference. A 1:1 binding model with mass transfer was applied for a global fit of the data for curves corresponding to analyte concentrations from 3-56 nM of Fab fragment.
Note that the Biacore assay used to measure the data in this example is different in terms of immobilized binding partner (GPVI versus the mAb/Fab fragment) and this leads to the different Biacore affinities as reported in Table 5.

hGPVI-hFc fusion protein [2] = molecular target: T3, hGPVI-hFc fusion protein (human); experiment: DELFIA competition assay: Fab preincubated with GPVI-Fc (3 µg/ml), binding to collagen-coated plate, Test 1
T3 construct: also called GPVI-Fc; human GPVI-Fc fusion protein
Procedure: (§1) Collagen coated 384 well plates (Pierce) were blocked with 3% BSA for 2 h. Increasing concentrations of anti GPVI Fab fragments (0.3-20 μg/ml) were incubated with recombinant GPVI (Fusion protein of the extracellular domain of GPVI and Fc-Part of human IgG; 3 μg/ml). The GPVI-Fab mixture was added to collagen coated plates and incubated for 1 h at RT. 384 well plates were washed (DELFIA wash buffer, Perkin Elmer) five times and Eu-labelled anti-human IgG (100 ng/ml Perkin Elmer) was added. Following 1 h incubation at room temperature plates were washed again five times, enhancement solution (Perkin Elmer) was added and incubated for 10 min. Fluorescence was detected at 360/612 nm using a Tecan Ultra reader. Shown in Table 15 are examples of the inhibitory effect of recombinantly produced anti-GPVI Fab fragments on GPVI collagen binding.

human GPVI on platelets = molecular target: T2, human GPVI on platelets; experiment: cell-based or functional assay
hGPVI-hFc fusion protein [3] = molecular target: T3, hGPVI-hFc fusion protein; experiment: DELFIA competition assay: Fab preincubated with GPVI-Fc (3 µg/ml), binding to collagen-coated plate, Test 2
Procedure: as §1

[4] = molecular target: T1, human GPVI protein, soluble …; experiment: SPR (Biacore 3000), Fab immobilised, human GPVI analyte
Procedure: Surface plasmon resonance technology on a Biacore 3000 (GE Healthcare) was used for detailed kinetic characterization of purified antibody fragments. A direct binding assay was used with the anti-GPVI Fab as the ligand and human GPVI as analyte. Typically, 500 RU of anti-GPVI Fab were immobilized on a research grade CM5 chip by amine reactive coupling, resulting in an Rmax of 200 RU for the bound GPVI molecule. Binding kinetics were measured over a concentration range typically between 0.8 to 208 nM in HBS-EP (10 mM HEPES pH 7.4, 150 mM NaCl, 3 mM EDTA, 0.005% Surfactant P20) at a flow rate of 30 μl/min. Chip surfaces were regenerated with 10 mM glycine pH 2.0. Kinetic parameters were analyzed and calculated in the BIAevaluation program package (version 4.1) using a flow cell without immobilized Fab as reference. A 1:1 binding model with mass transfer was applied for a global fit of the data for curves.

hGPVI-hFc fusion protein [5] = molecular target: T3, hGPVI-hFc fusion protein; experiment: DELFIA competition assay: Fab preincubated with GPVI-Fc (3 µg/ml), binding to collagen-coated plate, Test 3
Procedure: as §1

Binder | Kd [1] [nM] | koff [1] [s⁻¹] | kon [1] [M⁻¹ s⁻¹] | IC50 (hGPVI-hFc fusion protein [2]) [mg/L] | IC50 for inhibition of collagen induced platelet aggregation (human PRP), Test 1 (human GPVI on platelets) [mg/L] | IC50 for inhibition of collagen induced platelet aggregation (human PRP), Test 2 (human GPVI on platelets) [mg/L] | IC50 for inhibition of collagen induced platelet aggregation (human PRP), Test 3 (human GPVI on platelets) [mg/L] | IC50 (hGPVI-hFc fusion protein [3]) [mg/L] | Kd [4] [nM] | koff [4] [s⁻¹] | kon [4] [M⁻¹ s⁻¹] | IC50 (hGPVI-hFc fusion protein [5]) [mg/L]
humanized anti-GPVI Fab VL1/VH2 (Fab, V domains shown, Recombinant Fab: VH fused to CH1 of human IGHG1 (Q569F4), HC ends in DKTHT; VL fused to human constant kappa (Q502W4); also called VL1 with VH2) VH: QVQLQESGPGLVAPSQSLSITCTVSGFSLTGYGVNWVRQPPSRGLEWLGMIWGDGSTDYQSTLKSRLSISKDNSKSQVFLKMNSLTTDDTARYYCARDLPMDYWGQGTSVTVSS VL: DIQMTQSPSSLSASVGGRVTITCKASQDINKYIAWYQHKPGKGPSLLIHYTSTLQPGVPSRFSGSGSGRDYSFSISNLQPEDIATYYCLQYANLLTFGGGTKLEIKR | 0.2 | 3e-05 | 113000 | 1.17 | 2.3 | 2 | 1.1 | 0.82 |  |  |  | 
Fab 390-G (recombinant glycosylated Fab of clone 390) (Fab, V domains shown, additional N-glycosylation motif in VH kept, Chimeric Fab from HEK293: VL fused to human constant kappa (IGKC, Q502W4), VH to CH1 of human IGHG1 (Q569F4)) VH: QVQLKESGPGLVAPSQSLSITCTVSGFSLTGYGVNWVRQPPGKGLEWLGMIWGDGSTDYNSTLKSRLSISKDNSKSQVFLKMNSLQTDDTARYYCARDLPMDYWGQGTSVTVSS VL: DIQMTQSPSSLSASLGGKVTITCKASQDINKYIAWYQHKPGKGPSLLIHYTSTLQPGIPSRFSGSGSGRDYSFSISNLEPEDIATYYCLQYANLLTFGGGTKLEIKR |  |  |  |  |  |  |  |  | 0.05 | 1.5e-05 | 320000 | 

The next lines start with the values.

Kd [1] [nM] | koff [1] [s⁻¹] | kon [1] [M⁻¹ s⁻¹] | IC50 (hGPVI-hFc fusion protein [2]) [mg/L] | IC50 for inhibition of collagen induced platelet aggregation (human PRP), Test 1 (human GPVI on platelets) [mg/L] | IC50 for inhibition of collagen induced platelet aggregation (human PRP), Test 2 (human GPVI on platelets) [mg/L] | IC50 for inhibition of collagen induced platelet aggregation (human PRP), Test 3 (human GPVI on platelets) [mg/L] | IC50 (hGPVI-hFc fusion protein [3]) [mg/L] | Kd [4] [nM] | koff [4] [s⁻¹] | kon [4] [M⁻¹ s⁻¹] | IC50 (hGPVI-hFc fusion protein [5]) [mg/L] | Binder
0.2 | 2e-05 | 124000 | 1.01 | 1.6 | 1.8 | 1.2 | 1.14 |  |  |  | 1.06 | humanized anti-GPVI Fab VL1/VH4 (Fab, V domains shown, Recombinant Fab: VH fused to CH1 of human IGHG1 (Q569F4), HC ends in DKTHT; VL fused to human constant kappa (Q502W4); also called VL1 with VH4) VH: QVQLQESGPGLVAPSQSLSITCTVSGFSLTYYGVNWVRQPPSRGLEWLGMIWGDGSTDYQSTLKSRLSISKDNSKSQVFLKMNSLTTDDTARYYCARDLPMDYWGQGTSVTVSS VL: DIQMTQSPSSLSASVGGRVTITCKASQDINKYIAWYQHKPGKGPSLLIHYTSTLQPGVPSRFSGSGSGRDYSFSISNLQPEDIATYYCLQYANLLTFGGGTKLEIKR
0.4 | 4e-05 | 111000 | 1.1 | 1.5 | 2.3 |  | 0.75 |  |  |  | 1 | humanized anti-GPVI Fab VL1/VH1 (Fab, V domains shown, Recombinant Fab: VH fused to CH1 of human IGHG1 (Q569F4), HC ends in DKTHT; VL fused to human constant kappa (Q502W4); also called VL1 with VH1) VH: QVQLQESGPGLVAPSQSLSITCTVSGFSLTGYGVNWVRQPPSRGLEWLGMIWGDGSTDYQSTLKSRLSISKDTSKSQVFLKMNSLTTDDTARYYCARDLPMDYWGQGTSVTVSS VL: DIQMTQSPSSLSASVGGRVTITCKASQDINKYIAWYQHKPGKGPSLLIHYTSTLQPGVPSRFSGSGSGRDYSFSISNLQPEDIATYYCLQYANLLTFGGGTKLEIKR
